From article PMC5340921 come the findings set out here.

In the series the target is T1, PPR10 (maize, UniProt B8Y6I0 38-786).
T1 sequence: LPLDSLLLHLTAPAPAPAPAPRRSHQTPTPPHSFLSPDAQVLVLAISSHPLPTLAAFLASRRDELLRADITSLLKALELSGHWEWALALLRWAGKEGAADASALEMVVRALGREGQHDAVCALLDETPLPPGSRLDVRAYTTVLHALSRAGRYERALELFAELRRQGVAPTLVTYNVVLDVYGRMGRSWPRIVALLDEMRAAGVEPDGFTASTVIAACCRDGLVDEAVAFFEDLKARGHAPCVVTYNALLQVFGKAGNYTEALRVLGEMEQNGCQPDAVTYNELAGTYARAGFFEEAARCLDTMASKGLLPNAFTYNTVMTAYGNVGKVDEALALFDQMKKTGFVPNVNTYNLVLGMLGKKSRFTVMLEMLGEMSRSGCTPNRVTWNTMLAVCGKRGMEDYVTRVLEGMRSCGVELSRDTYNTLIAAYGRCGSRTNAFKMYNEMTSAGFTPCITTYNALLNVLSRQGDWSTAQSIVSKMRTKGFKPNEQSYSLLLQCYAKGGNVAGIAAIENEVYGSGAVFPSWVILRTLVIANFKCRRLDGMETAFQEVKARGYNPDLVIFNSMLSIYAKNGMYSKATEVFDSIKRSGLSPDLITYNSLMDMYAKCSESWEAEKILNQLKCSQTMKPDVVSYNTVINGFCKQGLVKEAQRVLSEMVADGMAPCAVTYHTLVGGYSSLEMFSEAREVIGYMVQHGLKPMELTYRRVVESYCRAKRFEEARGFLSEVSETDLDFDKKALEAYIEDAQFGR
The experiment in a line: EMSA.

B1: atpH WT 17-mer (ssRNA)
RNA: GUAUCCUUAACCAUUUC
Turning to B1, the binding result was “binds”.
